Our source for the fold more potent than ATP alone, fold better binding affinity than ATP and Ki values is patent US20110034670A1.

In experiment [1] the target is Src tyrosine kinase. The experiment is described as follows: steady-state kinetics, Ki against Km of ATP.
The target of experiment [2] is Lck. Put plainly: steady-state kinetics, radioactive kinase assay.
The target in experiment [3] is Lck. Put plainly: steady-state kinetics, radioactive kinase assay; ATP-binding site of Lck.
The target in experiment [4] is Lck. The experiment is described as follows: steady-state kinetics, ATP-binding site, after UV exposure.
Experiment [5] has as its target Lck. Put plainly: steady-state kinetics, radioactive kinase assay; ATP-binding site.
Experiment [6] has as its target Src tyrosine kinase. The experiment is described as above.
Experiment [7] concerns the target Src tyrosine kinase. Put plainly: steady-state kinetics, radioactive kinase assay; ATP-binding site of Src.
For experiment [8], the target named is Src tyrosine kinase. Put plainly: radioactive Src kinase assay, catalytic activity inhibition.

Sequence of Lck (D3DPP8 whole entry): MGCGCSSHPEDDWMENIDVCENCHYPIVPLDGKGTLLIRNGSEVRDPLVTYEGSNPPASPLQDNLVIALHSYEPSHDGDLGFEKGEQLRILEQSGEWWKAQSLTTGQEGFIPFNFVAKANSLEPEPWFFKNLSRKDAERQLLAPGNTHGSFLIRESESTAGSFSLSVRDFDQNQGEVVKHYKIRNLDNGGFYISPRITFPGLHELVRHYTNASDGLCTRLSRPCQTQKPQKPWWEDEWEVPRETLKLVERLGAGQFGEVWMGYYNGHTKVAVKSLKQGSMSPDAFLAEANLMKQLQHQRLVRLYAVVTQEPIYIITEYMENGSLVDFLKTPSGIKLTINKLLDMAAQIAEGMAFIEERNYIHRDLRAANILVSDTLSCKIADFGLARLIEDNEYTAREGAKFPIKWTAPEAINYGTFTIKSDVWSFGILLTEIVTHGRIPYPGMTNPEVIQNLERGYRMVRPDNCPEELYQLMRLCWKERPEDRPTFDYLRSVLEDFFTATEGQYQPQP

“ATP-1,13-Trioxa-Suc-pTyr-Glu-Glu-Ile-OH (5) (peptide)” showed a fold more potent than ATP alone with Src tyrosine kinase [1] of 44 fold. The fold better binding affinity than ATP with Lck [2] was 3.9 fold. The Ki in the experiment with Lck [3] came out at 25.3 µM.

As for “ATP-1,13-Trioxa-SA-pTyr-γ-p-azidoGlu-Glu-Ile-OH (7) (peptide)”, the Ki with Lck [4] was 29.8 µM; with Lck [5] it was 30 µM; with Src tyrosine kinase [6], 2.7 µM; with Src tyrosine kinase [7] it was 1.7 to 2.6 µM.

Consider “H2N-1,13-Trioxa-Suc-pTyr-Glu-Glu-Ile-OH (16) (peptide)”, for which the Ki with Src tyrosine kinase [8] is 608 µM.
